From the RNAGym collection of RNA variant scans (doi:10.1073/pnas.2313332121)
Fewer inactive variants are shown than the library holds.

B1: TPR 5TU (parent)
chain: GGAUCUUCUCGAUCUAACAAAAAAGACAAAUCUGCCACAAAGCUUGAGAGCAUCUUCGGAUGCAGAGGCGGCAGCCUUCGGUGGCGCGAUAGCGCCAACGUUCUCAACUAUGACACGCAAAACGCGUGCUCCGUUGAAUGGAGUUUAUCAUG

Variants of: B1
Assay: polymerase ribozyme fitness, log enrichment relative to wild type (log ratio); higher = more active; in vitro selection for triplet polymerase activity
Summary of the method: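 Streptavidin-bead capture of gel-excised extended constructs, followed by RT-PCR, closed a single triplicate in vitro selection round. That round began by annealing PCR-built, transcribed mutant libraries of each subunit of a heterodimeric triplet polymerase ribozyme with a biotinylated primer, the partner subunit and triplets, then incubating them frozen at −7 °C. After Illumina sequencing of inputs and outputs, genotypes needed ≥10 input reads and ≥1 read per output. Fitness is the base-2 logarithm of genotype enrichment over wild-type enrichment, using inverse-variance-weighted replicate averages.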

Point of comparison: U33G A39U C116A U130G, “polymerase ribozyme fitness (log ratio)” value -3.98. Against it:
- G34A G48C G59A U102G C114A G143U A147G — lower, ≤ -4.2
- G34U A40G C69U G80U C99U A107G U139G G140U U148C — lower, ≤ -4.2
- G34U C51U G59U G88A G141U A142G U146G A147U — lower, ≤ -4.2
- C35A A66G G70U C87G C96G A121U C149U — lower, ≤ -4.2
- G34U A40G C72U C96G — lower, ≤ -4.2
- U33G A37U A60C C75U G94U C108U — lower, ≤ -4.2
- U33G U44A G46C A73G C76A C95U G133U — lower, ≤ -4.2
- U33G C43U A60U G88A U109G U135G G143A — within 0.2 log units, -4.09
- G34A C43A G92U C118U — lower, ≤ -4.2
- U33G U55A G70A G80C — lower, ≤ -4.2
- U33G G48C U53A C93U C149U — lower, ≤ -4.2
- U33G U55C C76U G86U C105A C116U — lower, ≤ -4.2
- C35A C87U — within 0.2 log units, -4.03
- G34U G67A C76U C85A — lower, ≤ -4.2
- G34C C76A C95U A142C — lower, ≤ -4.2
- G34A C69A A106G A147C — higher, -3.75
- C35A A47C G86U — lower, ≤ -4.2
- U33G C87A A142U — lower, ≤ -4.2
- U33G G46A A49C U77C A98U C99U G152U — lower, ≤ -4.2
- G34C A39C U55A A60U A73U U146G — lower, ≤ -4.2
- U33G G81C G83A C87G C105A A120C A121G G143A U148A — lower, ≤ -4.2
- C35A C43U C87A G128A — lower, ≤ -4.2
- C35A A52C G67U G68C C76U A115U A120C U134C — lower, ≤ -4.2
- U33G A52G A73G G92C A107U C114U C125U U134C G141C — lower, ≤ -4.2
- G34U G58U G74U G81A U102A U104C — lower, ≤ -4.2
- C35A C95A A107G G143U — within 0.2 log units, -3.95
- G34A U111C A113C G124U G152U — lower, ≤ -4.2
- G34A A106U A142U — lower, ≤ -4.2
- U33G C95A — higher, -3
- G34C A49C A52G U61G C87U C95A — within 0.2 log units, -4.12
- C35A C54G C72A C75A G84C C114U G133U A138G — lower, ≤ -4.2
- G34U C95G A115G C116U G140C U151A — lower, -4.19
- U33C U56C G59C C79A C95U C123A G140U — lower, ≤ -4.2
- C35A A39C G83A C114A G117A C123G G140U — lower, ≤ -4.2
- G34A G117U A137C A142U — lower, ≤ -4.2
- G34U G141C — higher, -2.78
- G34A U102G — lower, ≤ -4.2
- U33G G67U C85G C96G A122G G140A — lower, ≤ -4.2
- G34U U56A — higher, -1.7
- U33G G83C — higher, -3.6
- U33G A39C C54U — within 0.2 log units, -3.84
- C35A A49C U56C G71A C72U G92A A115C — higher, -3.21
- G34A G74U G94A C116G — lower, ≤ -4.2
- U33G G62U C69U C103A G126C — lower, ≤ -4.2
- G34A G84A U134G — higher, -2.82
- G34C C87G U90G G92A U148A — lower, ≤ -4.2
- U33G A47C U56A A73G G83U C99A — within 0.2 log units, -4.05
- G34C G59A G112U A115U C125U — lower, ≤ -4.2
- G34U U82G C96G A106G U145C — higher, -3.75
- C35A A52C U77C A147C — lower, ≤ -4.2
- G34U A39U U53A A64U C116U U146G — lower, ≤ -4.2
- G34A G50C G92U — lower, ≤ -4.2
- G34C U55G G65A — lower, ≤ -4.2
- C35A A37G U56A U61A — higher, -3.7
- U33G U56C G81C C95U — higher, -3.74
- U33G U53A G58A — higher, -3.78
- U33G A41U G46C C54G G62C G70U C96A A120G G124U — lower, ≤ -4.2
- U33G U44A A142G — lower, ≤ -4.2
- G34U C85A — within 0.2 log units, -3.91
- G34A U56A G92C — higher, -1.65
- C35A A39C C87U G92C A138C A147G — lower, ≤ -4.2
- G34A G67U U77C A89C U101G C116G U151C — lower, ≤ -4.2
- U33G A47C A52C U53A A73U C87G — lower, ≤ -4.2
- U33G G42C G88U G124U C125G — within 0.2 log units, -3.86
- G34U C54U U78G G83A C108G — within 0.2 log units, -4.13
- U33G G80C G92A C131A U151A — within 0.2 log units, -4.15
- U33G G46C C95U C99A A107G G133U — lower, ≤ -4.2
- C35A C79G U151A — lower, ≤ -4.2
- U33G G86U — within 0.2 log units, -3.95
- U33G A60G C85A A97U A142C — lower, ≤ -4.2
- U33G G50A C93G G128A — lower, ≤ -4.2
- G34U G58A G59A C85U U101G A150G — lower, ≤ -4.2
- G34A C57G A66U A115U U134C A142U U148G — within 0.2 log units, -3.95
- G34U C79G G92U C93G U109A G143C — lower, ≤ -4.2
- U33G G83A G88U G136C — lower, ≤ -4.2
- G34C C36A A91C C96U C123G G140A — within 0.2 log units, -4.15
- U33G U56A A91U C116U — within 0.2 log units, -3.95
- U33G A40C C116A — within 0.2 log units, -3.88
- G34U A37U U55A G136U — lower, ≤ -4.2
- G34U C95U A107G A110G — within 0.2 log units, -3.86
- C35A C76U G81A C96U C103A — lower, ≤ -4.2
- U33G G59A G94U — higher, -3.39
- G34A A40U U45C C69A C76A C87U G94A A106G A122U G124C U151A — lower, ≤ -4.2
